Measurements published in patent US20110256557A1, “IDENTIFYING PARATHYROID HORMONE AGONISTS AND ANTAGONISTS” (DISCOVERYBIOMED, INC., priority 2008, published 2011).

Experiments:
PTH1R = molecular target: T1, PTH1R (Homo sapiens, UniProt Q03431); assay: Co-immunoprecipitation of exogenous LRP5/LRP6 constructs with PTH1R in HEK293 cells; format: cell-based; settings: co-expressed with PTH1R in HEK293 cells
T1 sequence (Q03431 27-593): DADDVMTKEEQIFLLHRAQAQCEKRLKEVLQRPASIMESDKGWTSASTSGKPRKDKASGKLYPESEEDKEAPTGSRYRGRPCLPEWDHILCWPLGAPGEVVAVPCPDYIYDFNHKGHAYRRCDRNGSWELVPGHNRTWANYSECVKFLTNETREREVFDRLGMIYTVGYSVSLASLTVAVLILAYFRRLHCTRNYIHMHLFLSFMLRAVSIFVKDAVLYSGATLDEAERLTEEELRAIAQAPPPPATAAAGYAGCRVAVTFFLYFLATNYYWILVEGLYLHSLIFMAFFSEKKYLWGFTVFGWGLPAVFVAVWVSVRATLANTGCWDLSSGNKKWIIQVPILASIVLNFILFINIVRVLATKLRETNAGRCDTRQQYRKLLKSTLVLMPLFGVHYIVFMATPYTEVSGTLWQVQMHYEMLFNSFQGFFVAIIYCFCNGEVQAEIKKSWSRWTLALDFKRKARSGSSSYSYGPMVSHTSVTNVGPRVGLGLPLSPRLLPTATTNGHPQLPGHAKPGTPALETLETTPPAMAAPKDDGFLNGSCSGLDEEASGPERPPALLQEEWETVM
Source text: PTH1R tagged with HA was subcloned into pcDNA3.1. cDNAs from human LRP5 (Mao et al., Mol. Cell. 7:801-9 (2001)) and LRP6 (Tamai et al., Nature 407:530-35 (2000)) tagged with HA and VSVG were subcloned into pCMV and pCS2^+, respectively. LRP6N+T (LRP6 N-terminal plus the transmembrane domain) and LRP6T+C (LRP6 transmembrane domain plus C-terminal) tagged with VSVG were subcloned into pCS2^+. LRP6N+1479m, LRP6N+1490m, LRP6N+1493m and LRP6N+1496m were generated by mutagenesis of either the serine (at amino acid 1490 or amino acid 1496) or threonine (at amino acid 1479 or amino acid 1493) to alanine LRP6N-IgG was generated by fusing the LRP6 extracellular domain with IgG (Tamai et al., Nature 407:530-35 (2000)). si-GFP (Wan et al., Am. J. Pathol. 166:1379-92 (2005)) and si-LRP6 plasmids were generated using a BS/U6 vector. Briefly, a 22-nucleotide oligo (oligo 1) corresponding to nucleotides 2981 to 3002 of the human LRP6 coding region was first inserted into the BS/U6 vector digested with ApaI (blunted) and HindIII. The inverted motif that contains the six-nucleotide spacer and five Ts (oligo 2) was then subcloned into the HindIII and EcoRI sites of the intermediate plasmid to generate BS/U6/LRP5/6.
(§1) Cells were harvested in cavitation buffer (5 mM HEPES, pH 7.4, 3 mM MgCl2, 1 mM EGTA, 250 mM sucrose) containing protease and phosphatase inhibitors and homogenized by nitrogen cavitation (200 p.s.i., for 5 minutes) in a cell disruption bomb (Parr Instrument Co.; Moline, Ill.). The cell homogenate was centrifuged twice at 700 g for 10 minutes to pellet the nuclei. The supernatant was further centrifuged at 100,000 g (Beckman SW50.1 rotor) for 1 hour to separate the membrane and cytosol fractions, and the resulting membrane pellet was washed three times with cavitation buffer before use in the assays (Zhang et al., Biochem. J. 343:541-9 (1999)). Immunoprecipitation and Western blot analysis of cell lysates were performed as described previously (Wan et al., Am. J. Pathol. 166:1379-92 (2005)).

[1] = tested on: luciferase reporter bearing TCF/LEF binding elements; assay: TCF/LEF luciferase reporter assay in UMR-106 cells; format: cell-based, rat; settings: UMR-106 cells treated with PTH
Source text: HEK293, UMR-106 and mouse embryonic fibroblast (MEF) cells were maintained in Dulbecco's Modified Eagle Medium (DMEM) with 10% Fetal Calf Serum (FCS). Mouse Wnt3a conditioned medium (Wnt3a CM) was produced from mouse L cells stably transfected with mouse Wnt3a (American Type Culture Collection; Manassas, Va.) and control conditioned medium (Control CM) was from non-transfected L cells. IgG, LRP6N-IgG, DKK1, Sclerostin, VSVG-LRP6N and Myc-Fz8CRD conditioned media were produced from HEK 293 cells transfected with the individual plasmids. Transfections were carried out using lipofectamine reagent (Invitrogen; Carlsbad, Calif.). Luciferase assays were carried out in either UMR-106 or HEK 293 cells as described previously (Wan et al., Am. J. Pathol. 166:1379-92 (2005)), with 0.3 μg of TCF-Luc reporter plasmid plus 50 ng of Renilla luciferase plasmid (internal control) per well in the 12-well plate. Experiments were repeated at least three times with triplicate for each experiment.

β-catenin = assay: Western blot of cytosolic β-catenin in HEK 293 cells; format: cell-based; settings: for effect on PTH-elevated β-catenin level (accumulation in cytosol/cytoplasm): PTH-treated cells (FIG. 5 cells not stated; FIG. 10, 27 HEK293)
Protocol: as §1

| Molecule | binding of LRP6 construct to PTH1R (IP assay) (PTH1R) | effect on PTH-stimulated TCF/LEF luciferase (transcriptional) activity [1] | effect on PTH-elevated β-catenin level (accumulation in cytosol/cytoplasm) (β-catenin) | effect on Wnt3a-elevated β-catenin level (β-catenin; Wnt3a-treated cells (FIG. 5 cells not stated; FIG. 27 HEK293)) |
| --- | --- | --- | --- | --- |
| LRP6T+C: truncated LRP6 containing the transmembrane and intracellular domains, tagged with VSVG (protein, left off: small tags and cut ends, truncated LRP6 containing the transmembrane and intracellular domains, tagged with VSVG) TNTVGSVIGVIVTIFVSGTVYFICQRMLCPRMKGDGETMTNDYVVHGPASVPLGYVPHPSSLSGSLPGMSRGKSMISSLSIMGGSSGPPYDRAHVTGASSSSSSSTKGTYFPAILNPPPSPATERSHYTMEFGYSSNSPSTHRSYSYRPYSYRHFAPPTTPCSTDVCDSDYAPSRRMTSVATAKGYTSDLNYDSEPVPPPPTPRSQYLSAEENYESCPPSPYTERSYSHHLYPPPPSPCTDSS | could barely be detected |  |  |  |
| DKK1: secreted protein binding to LRP6 at the extracellular domain (protein, UniProt O94907 32-266, looked up) Dickkopf-related protein 1: TLNSVLNSNAIKNLPPPLGGAAGHPGSAVSAAPGILYPGGNKYQTIDNYQPYPCAEDEECGTDEYCASPTRGGDAGVQICLACRKRRKRCMRHAMCCPGNYCKNGICVSSDQNHFRGEIEETITESFGNDHSTLDGYSRRTTLSSKMYHTKGQEGSVCLRSSDCASGLCCARHFWSKICKPVLKEGQVCTKHRRKGSHGLEIFQRCYCGEGLSCRIQKDHHQASNSSRLHTCQRH |  | disrupted | disrupted | reduced |
| sclerostin: secreted protein binding to LRP6 at the extracellular domain (protein, UniProt Q9BQB4 24-213, looked up) Sclerostin: QGWQAFKNDATEIIPELGEYPEPPPELENNKTMNRAENGGRPPHHPFETKDVSEYSCRELHFTRYVTDGPCRSAKPVTELVCSGQCGPARLLPNAIGRGKWWRPSGPDFRCIPDRYRAQRVQLLCPGGEAPRARKVRLVASCKCKRLTRFHNQSELKDFGTEAARPQKGRKPRPRARSAKANQAELENAY |  | disrupted | disrupted |  |
